Measured values reported in the supplement of paper PMC9170038.

Tested on: MS2 coat protein
Experiment: apparent KD of MS2 coat protein; higher = weaker reporter binding
Conditions: Eterna round: R107
How it was run: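 Normalised binding curves from single clusters were fitted, and the median fit for each design is given as apparent KD. The clusters held designed RNA switches transcribed on-chip from Illumina sequencing clusters. These were titrated with SNAP-549-labelled MS2 coat protein (twofold steps from 0.7 or 1.5 nM to 3 µM, 0.8–1.5 h to 10–20 min per step) in 100 mM Tris-HCl pH 7.5, 80 mM KCl, 4 mM MgCl2, without or with constant ligand.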

[1] = input ligand: theophylline 20 uM
[2] = input ligand: tryptophan 2.4 mM
[3] = input ligand: theophylline 2 mM

Sequence	apparent KD of MS2 coat protein (input ligand: arginine 13.2 mM) [µM]	apparent KD of MS2 coat protein [1] [µM]	apparent KD of MS2 coat protein [2] [µM]	apparent KD of MS2 coat protein [3] [µM]	apparent KD of MS2 coat protein (input ligand: none) [µM]
GCACCAGGUACGGAUACCAGCUGCUCGAGAUACAUGAGGAUCACCCAUGUGACCUGGUUUAGCCCUUGGCAGCUGUACCUGGUGC [#15 Same State - Theophylline B]	0.0164	0.0153	0.0172		
GCAUCCUAGUCGGCCGCCACUGCAACAUGAGGAUCACCCAUGUCUGUAUGUGAUCCAUGCAGUAGCAGGACCGGGACUAGGAUGC [(T1)-(M1)-(M2)-(T)''-(M)'-(T)'-(T2)_Design3_2/18/17]	0.237	0.467		0.833	
GCAUCCUAGUCGGCCGCCACUGCAAUUGUAAUACUGCUACAUGAACAUGAGGAUCACCCAUGUAGCAGGACCGGGACUAGGAUGC [(Trp1)-(TM)''-(TM)'-(Ms2)-(Trp2)_Design9]	0.0804	0.185		0.222	
GCAUCCUAGUCGGCCGCCACUGCAGUAGCACCUGCUACAUGGAAACAUGAGGAUCACCCAUGUAGCAGGACCGGGACUAGGAUGC [(Trp1)-(TM)''-(TM)'-(Ms2)-(Trp2)_Design8]	0.0443	0.733	0.236	0.909	0.276
GCCAUCGGCGGAAGCCGAUGGUAUACGGAAGGAGCGCACGAAAGUGCAGGUAGGUCGCUGAACAUGAGGAUCACCCAUGUAAUAA [#28 Same State - Arginine A]	0.0176	0.0364	0.0203	0.0241	0.0188
GCCUCCAGCCGAAGGAGCGCUAGAAGGUGACAUGAGGAUCACCCAUGUGUGUGAUGUGGCUAGCAGGUAGGUCGCGGAGGAGGUU [Exclusion - Arginine B (Freestyle 20)]	0.0627	0.133	0.0898	0.12	0.0685
GCGAUGGAGCGAAGGAGCGGCUAUCACCGACAAAACAUGAGGAUCACCCAUGUUGGCAGUGGCCAGGUAGGUCGCGCUCCAUCGC [EAB NP+V+V2 #8]	0.00817	0.0123	0.00857	0.0108	0.0114
GCUAGGUCAUCGGCCGCCACUAACGAAGGUUCGAACAUGAGGAUCACCCAUGUGCCACAUGCGCAUAGGACCGGGAUGACCUAGC [SSTB NP+V+V2 #7 +-Same Structure]	0.0138	0.0262	0.0114	0.0208	0.0173
GCUAGGUCAUCGGCCGCCACUAACGAUGGCUCCAACAUGAGGAUCACCCAUGUGCCACAUGCGCAUAGGACCGGGAUGACCUAGC [SSTB NP+V+V2 #3]	0.0113	0.0162		0.0141	
GCUGCCAUACGAAGGAGCGCUGCUGCGAUGUGGCGAACAUGAGGAUCACCCAUGUGGCAGCAGCAGGUAGGUCGCGUAUGGCAGC [#01 Exclusion - Arginine B]	0.131	0.489	0.198	0.259	0.144
GCUGUAAGUGCAGAUACCAGCAGGUGAUAUUUCUAAUGACAUGAGGAUCACCCAUGUAACUGCCCUUGGCAGCUGCACUUACAGC [SSTHB #8]	0.0485	0.0321	0.0596		
GCUUGGGUGGCCCAGCCCUGGCAGGGCGAUACCAGCACGGUAACGUGCCCUUGGCAGCGCACAUGAGGAUCACCCAUGUGGUGCG [#1 Exclusion - Theophylline A Attempt #27 (HarryS)]	0.0528	0.161	0.112		
GCUUGGGUGGCCCAGCCCUGGCAGGGCGAUACCAGCCCGGUAACGGGCCCUUGGCAGCGCACAUGAGGAUCACCCAUGUGGUGCG [#1 Exclusion - Theophylline A Attempt #28 (HarryS)]	0.0224	0.0603	0.0449	0.085	0.0524
GGACUAACCAGAAGGAGCGACACGCAGAAACUGCAAAAUCCUCCGCACGAGGAUCACCCGUGUCAGGUAGGUCGCUGGUUAGUCG	0.0386	0.0636	0.0497	0.0602	0.0543
GGACUAACCAGAAGGAGCGACACGCAGAAACUGCAAAUUCCUCCGCACGAGGAUCACCCGUGUCAGGUAGGUCGCUGGUUAGUCG [ArgBX 28]	0.0229	0.0332	0.0224	0.0235	0.0194
GGACUAACCAGAAGGAGCGGCACAAAGCAGAAACUGCAUCCUCCGCACGAGGAUCACCCGUGUCAGGUAGGUCGCUGGUUAGUCG [ArgBX 28]	0.0462	0.0706	0.062	0.0695	0.0575
GGACUCGUCACGGCCGCCACUGCGGUGGUGUGACAUGAGGAUCACCCAUGUUGUCAUGCGGCCCUUAGGACCGGGUGUCGCUUCC [#1 Exclusion - Tryptophan B Attempt #24 (HarryS)]	0.124	0.221		0.336	
GGAGCUACGUCGGCCGCCACUAGCGGUUAUUACGUGUACAUGAGGAUCACCCAUGUAAUAUGGCUUAGGACCGGGACGUAGCUCC [Wolverine]	0.021	0.029		0.0278	
GGAUAGAUAGGAGAUACCAGACACAUUAACAUGAGGAUCACCCAUGUGUCUGCACUAAGUGUCCCUUGGCAGCUCGGAGAUCUGA [Same State - Theophylline B]	0.0342	0.0442	0.0319	0.0306	0.0459

Sequence	apparent KD of MS2 coat protein (input ligand: arginine 13.2 mM) [µM]	apparent KD of MS2 coat protein [1] [µM]	apparent KD of MS2 coat protein [2] [µM]	apparent KD of MS2 coat protein [3] [µM]	apparent KD of MS2 coat protein (input ligand: none) [µM]
GGAUAGGACACGGCCGCCACUAGCUAGGAUACUAGCAACAUUUCCUCACUUGAGGAUCACCCAAGUAGGACCGGGUGUCCUAUCG	0.0952	0.25	0.182	0.16	0.162
GGAUAGGACACGGCCGCCACUGCCUAGGAUACUAGAAACAUUUCCUCACAUGAGGAUCACCCAUGUAGGACCGGGUGUCCUAUCG	0.0749	0.161		0.121	
GGAUAGGACAGAAGGAGCGACAUCGCCGAAAGGCUGGUAAGAUCACAUGAGGAUCACCCAUGUCAGGUAGGUCGCUGUCCUAUCG [ArgXB 11 #Zipper #MS2Left #StaticStem #Blueprint]	0.0922	0.36	0.308	0.627	0.283
GGAUAGGACAGAAGGAGCGACAUGAGGAUCACCCAUGUCUACCACGUCGAAAGACGCUCAUGUCAGGUAGGUCGCUGUCCUAUCG [ArgXB 9 #StaticStem #MS2LeftOffAptamer]	0.101	0.191	0.113	0.183	0.153
GGAUAGGACAGAAGGAGCGACAUGAGGAUCACCCAUGUCUACUAGGACGAAAGUCCGUCAUGUCAGGUAGGUCGCUGUCCUAUCG [#29 Exclusion - Arginine B]	0.0688	0.103	0.0812	0.114	0.0887
GGAUAGGACAGAAGGAGCGACAUGCGACGAAAGUCGAAAAGAUCACAUGAGGAUCACCCAUGUCAGGUAGGUCGCUGUCCUAUCG [ArgXB 10 #Zipper #MS2Left #StaticStem #Blueprint]	0.119	0.115	0.0899	0.154	0.127
GGAUAGGACAGAAGGAGCGACGUGAGGCGAAAGCCAAUCCUUCAACAUGAGGAUCACCCAUGUCAGGUAGGUCGCUGUCCUAUCG [ArgBX 5]	0.0195	0.0264	0.0225	0.0223	0.0209
GGAUUACGAAAGUAGUCCAUCAAGUUCGAGCGAGGACCGGUACGGCCGCCACUCGAACAUGAGGAUCACCCAUGUAGCGAAAGCU [Tryptophan A 21]	0.116	0.304		0.371	
GGCACAUAGUCGGCCGCCACUAGAAUAAGAUGGAAUAACAUGAGGAUCACCCAUGUAAAAGGGACUAGGACCGGGACUAUGUGCC [Goat]	0.0129	0.0157		0.0143	
GGCACCAGGAGAAGGAGCGUGAAGACAUGAGGAUCACCCAUGUAGAGGCCCGUACCGGGUUCGCAGGUAGGUCGCUCCUGGUGCC [#1 Same State - Arginine B Attempt #14 (HarryS)]	0.0192	0.0381	0.0242	0.0271	0.023
GGCCCUGCGAGCGCUCGCAGGGCCGCGGAUACCAGCGAGGUCCAUCGCCCUUGGCAGCCGAACAUGAGGAUCACCCAUGUCGGUA [#1 Same State - Theophylline A Attempt #13 (HarryS)]	0.00787	0.0129	0.00944	0.0183	0.00984
GGCCGAAACGGCCAAGGUAUCAUGACCGAUACCAGCGAAGAAGAACGCCCUUGGCAGCGGACAUGAGGAUCACCCAUGUAAAGAA	0.0245	0.0383	0.0139	0.124	0.016
GGCUAGGCUAGCGAUACCAGCAACCAACAUGAUCUGAGGAUCACCCAGGUAGUUGGACGUUGCCCUUGGCAGCGCUAGCCUAGCC [SSThB NP+V+V2 #12 Diff Apt, Same Structure]	0.0154	0.016	0.0155	0.0122	0.0143
GGCUAGUGCAUCGAUACCAGCUACAUGAGGAUCACCCAUGUAGGAAGGGUGGCACUCGAUAGCCCUUGGCAGCGAACACCUCCGG [Cebebion]	0.053	0.0312	0.0163	0.0281	0.0189
GGCUAUACUACGGCCGCCACUGAACAUGAGGAUCACCCAUGUAAUGUUCAGAUUUUUUUUUUUUACAGGACCGGGUAGAAUUGCC [Tryptophan B 3]	0.0826	0.22		0.299	
GGGAUAUCCCGAAGGAGCGCGAGAUGCUGUGCUGCAUUCCUCACAUGAGGAUCACCCAUGUCGCAGGUAGGUCGCGGGAUAUCCC [#16 Exclusion - Arginine B]	0.151	0.452	0.485	0.553	0.45
GGGCCCGGGCGCGAGCCCGGGCCCAUUGAUACCAGUGAAGAAGAGCGCCCUUGGCAGCGAAUCCUAACAUGAGGAUCACCCAUGU [5.P]	0.0632	0.0743	0.0388	0.0773	0.0436
GGGCCCGGGCGCGAGCCCGGGCCCAUUGAUACCAGUGAUAGAGAGCGCCCUUGGCAGCGAAUCCUAACAUGAGGAUCACCCAUGU [5.K]	0.0375	0.0952	0.0566	0.0839	0.0463
GGGCCCGGGCGCGAGCCCGGGCCCAUUGAUACCAGUGAUAUAUGACGCCCUUGGCAGCGAAUCCUAACAUGAGGAUCACCCAUGU [5.H]	0.0228	0.0589	0.0371	0.0816	0.0547
